How the values were obtained:
[1] = substrate: O=C[C@H](O)CO; assay: purified protein; conditions: NADPH 0.3 mM, 50 mM Tris-HCl pH 7.5, 37 °C
[2] = substrate: CCCCCC=O; assay: purified protein; conditions: NADPH 0.3 mM, 50 mM Tris-HCl pH 7.5, 37 °C
[3] = substrate: CC(C)C=O; assay: purified protein; conditions: NADPH 0.3 mM, 50 mM Tris-HCl pH 7.5, 37 °C
[4] = substrate: NC(=O)c1ccc[n+]([C@@H]2O[C@H](COP(=O)(O)OP(=O)(O)OC[C@H]3O[C@@H](n4cnc5c(N)ncnc54)[C@H](OP(=O)(O)O)[C@@H]3O)[C@@H](O)[C@H]2O)c1; assay: purified protein; assay type: biochemical, Escherichia coli; conditions: butanol, 50 mM Tris-HCl pH 8.5, 37 °C, pH 8.5, varied: cofactor
[5] = substrate: CCCC=O; assay: purified protein; assay type: biochemical, Escherichia coli; conditions: NADPH 0.3 mM, 50 mM Tris-HCl pH 7.5, 37 °C, pH 7.5
[6] = substrate: O=CCCCC=O; assay: purified protein; assay type: biochemical, Escherichia coli; conditions: NADPH 0.3 mM, 50 mM Tris-HCl pH 7.5, 37 °C, pH 7.5
[7] = substrate: O=Cc1ccccc1; assay: purified protein; assay type: biochemical, Escherichia coli; conditions: NADPH 0.3 mM, 50 mM Tris-HCl pH 7.5, 37 °C, pH 7.5
[8] = substrate: C/C=C/C=O; assay: purified protein; assay type: biochemical, Escherichia coli; conditions: NADPH 0.3 mM, 50 mM Tris-HCl pH 7.5, 37 °C, pH 7.5
[9] = substrate: NC(=O)C1=CN([C@@H]2O[C@H](COP(=O)(O)OP(=O)(O)OC[C@H]3O[C@@H](n4cnc5c(N)ncnc54)[C@H](OP(=O)(O)O)[C@@H]3O)[C@@H](O)[C@H]2O)C=CC1; assay: purified protein; assay type: biochemical, Escherichia coli; conditions: butyraldehyde, 50 mM Tris-HCl pH 7.5, 37 °C, pH 7.5, varied: cofactor
[10] = substrate: O=Cc1ccco1; assay: purified protein; assay type: biochemical, Escherichia coli; conditions: NADPH 0.3 mM, 50 mM Tris-HCl pH 7.5, 37 °C, pH 7.5
[11] = substrate: OCCCCO; assay: purified protein, by the assay type; design: NADPH/NADP+ absorbance at 340 nm, purified His-tagged enzyme, Michaelis-Menten fit; pH 7.5 reduction, pH 8.5 oxidation, 37 °C
Procedure: (§1) The ADH activity was determined photometrically by monitoring the increase/decrease of NADP^+/NADPH at 340 nm in a Mulitskan® spectrum spectrophotometer (Thermo Fisher Scientific). The reaction mixture contained 50 mM Tris-HCl, pH 7.5, 0.3 mM NAD(P)H a defined aldehyde as substrate, and the purified enzyme at 37 °C. One unit of enzyme activity was defined as the amount of protein that oxidizes 1 μmol of NAD(P)H/min at 37 °C. Calculation of Michaelis–Menten kinetics for determination of K m and V max was done with SigmaPlot 11.0 (Systat Software). Alcohols with alkyl chains longer than C6 were not tested as substrates due to solubility problems. For the characterization of recombinant YahK and YjgB, enzyme activity was assayed for the reduction of carbonyl compounds and the oxidation of alcohols. For the reduction of carbonyl compounds, the assays were conducted at pH 7.5, 50 mM Tris-HCl, and 37 °C. The oxidation of alcohols was assayed with a slightly higher pH of 8.5, 50 mM Tris-HCl, and 37 °C. […] The decrease of NADPH at 340 nm was determined using a Shimadzu UV-1800 UV-spectrophotometer (Duisburg, Germany) Protein expression is exemplarily described for one enzyme and was performed for other proteins by the same procedure. E. coli BL21(DE3) containing the plasmid of interest was grown in 50 ml autoinduction media for efficient protein expression (Studier [2005]). In the case of YjgB, YahK, and YqhD, additional ZnCl2 was added to the media with a final concentration of 0.1 mM. The preculture was incubated in 4 ml of LB medium with 100 μg/ml kanamycin at 37 °C overnight on a rotary shaker (180 rpm). Expression culture was inoculated with a 1:100 dilution of overnight culture. Incubation was performed foremost 3 h at 37 °C followed by incubation for 21 h at 16 °C. Cells were harvested by centrifugation and resuspended in 50 mM sodium phosphate buffer (pH 8.0, 20 mM imidazol, 500 mM NaCl, and 10 % glycerol). Crude extracts were prepared by use of a cell disrupter (IUL Instruments) and subsequent addition of MgCl2 to a final concentration of 2.5 mM in combination with DNase (1 μg/ml) and a following incubation for 20 min at room temperature for DNA degradation. The insoluble fraction of the lysate was removed by centrifugation at 20,000 rpm for 40 min at 4 °C. The supernatant was filtered through a 0.45-μm syringe filter and applied to an affinity resin column, 5 ml HisTrap^TM FF, equilibrated with the resuspension buffer using the ÄKTA UPC-900 FPLC-system. The enzyme was washed with 20 ml of resuspension buffer and eluted with 50 mM sodium phosphate buffer (pH 8.0, 500 mM imidazol, 500 mM NaCl, and 10 % glycerol). Aliquots of each eluted fraction were subjected to 12 % SDS-PAGE. The fractions containing the eluted protein were pooled and the protein was desalted using a HiPrep^TM 26/10 Desalting column which preliminary equilibrated with 50 mM Tris-HCl, pH 8.0. Protein concentrations were determined using a Bradford assay Roti®-nanoquant (Carl Roth).

[12] = substrate: CC=O; assay: purified protein, by the assay type; design: NADPH/NADP+ absorbance at 340 nm, purified His-tagged enzyme, Michaelis-Menten fit; pH 7.5 reduction, pH 8.5 oxidation, 37 °C
Procedure: as §1

[13] = substrate: CCC=O; assay: purified protein, by the assay type; design: NADPH/NADP+ absorbance at 340 nm, purified His-tagged enzyme, Michaelis-Menten fit; pH 7.5 reduction, pH 8.5 oxidation, 37 °C
Procedure: as §1

[14] = substrate: CCCCO; assay: purified protein; assay type: biochemical, Escherichia coli; conditions: NADP+, 50 mM Tris-HCl pH 8.5, 37 °C, pH 8.5
[15] = substrate: CCC=O; assay: purified protein; assay type: biochemical, Escherichia coli; conditions: NADPH 0.3 mM, 50 mM Tris-HCl pH 7.5, 37 °C, pH 7.5
[16] = substrate: CC(C)C=O; assay: purified protein, by the assay type; design: NADPH/NADP+ absorbance at 340 nm, purified His-tagged enzyme, Michaelis-Menten fit; pH 7.5 reduction, pH 8.5 oxidation, 37 °C
Procedure: as §1

B1: YahK (Escherichia coli K-12) (protein)
chain: MKIKAVGAYSAKQPLEPMDITRREPGPNDVKIEIAYCGVCHSDLHQVRSEWAGTVYPCVPGHEIVGRVVAVGDQVEKYAPGDLVGVGCIVDSCKHCEECEDGLENYCDHMTGTYNSPTPDEPGHTLGGYSQQIVVHERYVLRIRHPQEQLAAVAPLLCAGITTYSPLRHWQAGPGKKVGVVGIGGLGHMGIKLAHAMGAHVVAFTTSEAKREAAKALGADEVVNSRNADEMAAHLKSFDFILNTVAAPHNLDDFTTLLKRDGTMTLVGAPATPHKSPEVFNLIMKRRAIAGSMIGGIPETQEMLDFCAEHGIVADIEMIRADQINEAYERMLRGDVKYRFVIDNRTLTD
notes: expressed in E. coli BL21(DE3) with ZnCl2
- Km [1]: 4.4 ± 0.4 mM
- kcat [1]: 12.3 s⁻¹
- kcat/Km [1]: 2800 M⁻¹ s⁻¹
- Km [2]: 0.37 ± 0.02 mM
- kcat [2]: 18.3 s⁻¹
- kcat/Km [2]: 49500 M⁻¹ s⁻¹
- Km [3]: 2.2 ± 0.2 mM
- kcat [3]: 32.1 s⁻¹
- kcat/Km [3]: 14600 M⁻¹ s⁻¹
- Km [4]: 0.012 ± 0.001 mM
- kcat [4]: 7.47 ± 0.07 s⁻¹
- kcat/Km [4]: 622000 M⁻¹ s⁻¹
- Km [5]: 2.1 ± 0.1 mM
- kcat [5]: 41.6 ± 0.6 s⁻¹
- kcat/Km [5]: 19800 M⁻¹ s⁻¹
- Km [6]: 4.1 ± 0.4 mM
- kcat [6]: 13.4 ± 1.5 s⁻¹
- kcat/Km [6]: 3300 M⁻¹ s⁻¹
- Km [7]: 0.29 ± 0.02 mM
- kcat [7]: 7.75 ± 0.5 s⁻¹
- kcat/Km [7]: 26700 M⁻¹ s⁻¹
- Km [8]: 3.6 ± 0.4 mM
- kcat [8]: 32.6 ± 2.1 s⁻¹
- kcat/Km [8]: 9100 M⁻¹ s⁻¹
- Km [9]: 0.011 ± 0.001 mM
- kcat [9]: 9.8 ± 0.4 s⁻¹
- kcat/Km [9]: 894000 M⁻¹ s⁻¹
- Km [10]: 0.135 ± 0.03 mM
- kcat [10]: 12.5 ± 1.9 s⁻¹
- kcat/Km [10]: 92300 M⁻¹ s⁻¹
- Km [11]: 38.5 ± 2.9 mM
- kcat [11]: 6.7 ± 0.3 s⁻¹
- kcat/Km [11]: 180 M⁻¹ s⁻¹
- Km [12]: 13.3 ± 1.0 mM
- kcat [12]: 11.2 ± 0.7 s⁻¹
- kcat/Km [12]: 840 M⁻¹ s⁻¹
- Km [13]: 10.9 ± 1.0 mM
- kcat [13]: 11.6 ± 0.6 s⁻¹
- kcat/Km [13]: 1100 M⁻¹ s⁻¹

B2: YjgB (Escherichia coli K-12) (protein)
chain: MSMIKSYAAKEAGGELEVYEYDPGELRPQDVEVQVDYCGICHSDLSMIDNEWGFSQYPLVAGHEVIGRVVALGSAAQDKGLQVGQRVGIGWTARSCGHCDACISGNQINCEQGAVPTIMNRGGFAEKLRADWQWVIPLPENIDIESAGPLLCGGITVFKPLLMHHITATSRVGVIGIGGLGHIAIKLLHAMGCEVTAFSSNPAKEQEVLAMGADKVVNSRDPQALKALAGQFDLIINTVNVSLDWQPYFEALTYGGNFHTVGAVLTPLSVPAFTLIAGDRSVSGSATGTPYELRKLMRFAARSKVAPTTELFPMSKINDAIQHVRDGKARYRVVLKADF
notes: as for B1
- Km [2]: 0.34 ± 0.03 mM
- kcat [2]: 419 s⁻¹
- kcat/Km [2]: 1.23e+06 M⁻¹ s⁻¹
- Km [14]: 3.5 ± 0.28 mM
- kcat [14]: 13.8 ± 0.6 s⁻¹
- kcat/Km [14]: 3940 M⁻¹ s⁻¹
- Km [4]: 0.076 ± 0.01 mM
- kcat [4]: 14.4 ± 0.2 s⁻¹
- kcat/Km [4]: 189000 M⁻¹ s⁻¹
- Km [5]: 2.1 ± 0.09 mM
- kcat [5]: 464 ± 24.2 s⁻¹
- kcat/Km [5]: 221000 M⁻¹ s⁻¹
- Km [6]: 5.8 ± 0.5 mM
- kcat [6]: 312 ± 14.8 s⁻¹
- kcat/Km [6]: 53800 M⁻¹ s⁻¹
- Km [15]: 19.6 ± 0.8 mM
- kcat [15]: 207 ± 2.9 s⁻¹
- kcat/Km [15]: 10600 M⁻¹ s⁻¹
- Km [7]: 0.24 ± 0.02 mM
- kcat [7]: 313 ± 7.4 s⁻¹
- kcat/Km [7]: 1.3e+06 M⁻¹ s⁻¹
- Km [8]: 2.4 ± 0.2 mM
- kcat [8]: 77.6 ± 3.3 s⁻¹
- kcat/Km [8]: 32300 M⁻¹ s⁻¹
- Km [9]: 0.06 ± 0.003 mM
- kcat [9]: 224 ± 36.5 s⁻¹
- kcat/Km [9]: 3.73e+06 M⁻¹ s⁻¹
- Km [10]: 0.22 ± 0.02 mM
- kcat [10]: 224 ± 26.9 s⁻¹
- kcat/Km [10]: 1.02e+06 M⁻¹ s⁻¹
- Km [11]: 24.1 ± 1.5 mM
- kcat [11]: 12.9 ± 0.4 s⁻¹
- kcat/Km [11]: 530 M⁻¹ s⁻¹
- Km [12]: 73.4 ± 5.4 mM
- kcat [12]: 333 ± 26.1 s⁻¹
- kcat/Km [12]: 4500 M⁻¹ s⁻¹
- Km [16]: 193.7 ± 27.5 mM
- kcat [16]: 50.8 ± 9.4 s⁻¹
- kcat/Km [16]: 260 M⁻¹ s⁻¹
